Source: US20250297004A1, “NECTIN-4 BINDING AGENTS” (INNATE PHARMA, priority 2022, published 2025)
Where a chain is given by its changes, count along the chain named.

T1: human Nectin-4 expressed on cells (human, UniProt Q96NY8 32-510)
T1 sequence: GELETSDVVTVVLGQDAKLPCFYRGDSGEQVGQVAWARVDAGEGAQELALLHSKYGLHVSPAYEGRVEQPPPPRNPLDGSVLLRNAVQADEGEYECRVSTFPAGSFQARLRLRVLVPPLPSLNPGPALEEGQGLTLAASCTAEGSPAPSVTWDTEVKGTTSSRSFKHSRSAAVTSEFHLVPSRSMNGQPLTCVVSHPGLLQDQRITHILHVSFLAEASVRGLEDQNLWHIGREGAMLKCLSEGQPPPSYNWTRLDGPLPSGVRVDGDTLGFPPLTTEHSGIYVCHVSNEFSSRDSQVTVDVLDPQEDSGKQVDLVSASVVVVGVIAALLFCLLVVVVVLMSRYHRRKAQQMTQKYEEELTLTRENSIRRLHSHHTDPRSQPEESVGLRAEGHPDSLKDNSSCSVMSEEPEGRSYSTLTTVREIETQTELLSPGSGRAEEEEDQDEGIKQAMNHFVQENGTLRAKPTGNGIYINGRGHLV

T2: human Nectin-4 (Homo sapiens, UniProt Q96NY8)
T2 sequence (Q96NY8 32-510): T1 sequence

B1: H4L1 (antibody, human IgG1, V domains shown)
VH: QVQLVQSGAEVKKPGASVKVSCKASGYIFTSYWMHWVKQAPGQGLEWMGEIDPSDSYTNYNQKFKGRVTMTLDKSTSTTYMELSSLRSEDTAVYYCARGYGNYGDYWGQGTLVTVSS
VL: DVVMTQSPLSLPVTPGEPASISCRSSKSLLHSNGITYLYWYLQKPGQSPQLLIYQMSNLASGVPDRFSSSGSGTDFTLKISRVEAEDVGVYYCAQNLELPWTFGGGTKVEIK
notes: human IgG1 isotype
B2: H5L3 (antibody, human IgG1, kappa, V domains shown)
VH: B1 VH with A40R
VL: DVVMTQSALSNPVTPGEPASISCRSSKSLLHSNGITYLYWYLQKPGQSPQLLIYQMSNLASGVPDRFSSSGSGTDFTLKISRVEAEDVGVYYCAQNLELPWTFGGGTKVEIKR
notes: Tested as human IgG1
B3: H2L0 (antibody, human IgG1, V domains shown)
VH: B1 VH with I28T, K38R
VL: B1 VL with V2I, S69G
notes: human IgG1 isotype
B4: H3L3 (antibody, human IgG1, V domains shown)
VH: B1 VH with K38R
VL: B1 VL with P8A, L11N
notes: human IgG1 isotype
B5: H3L2 (antibody, human IgG1, V domains shown)
VH: B1 VH with K38R
VL: B1 VL with L11N
notes: human IgG1 isotype
B6: H3L0 (antibody, human IgG1, V domains shown)
VH: B1 VH with K38R
VL: B1 VL with V2I, S69G
notes: human IgG1 isotype
B7: H3L1 (antibody, human IgG1, V domains shown)
VH: B1 VH with K38R
VL: B1 VL
notes: human IgG1 isotype
B8: H1L0 (antibody, human IgG1, V domains shown)
VH: B1 VH with I28T, K38R, K74T
VL: B1 VL with V2I, S69G
notes: human IgG1 isotype
B9: H0L0 (antibody, human IgG1, V domains shown)
VH: B1 VH with I28T, K38R, L72R, K74T, T79V
VL: B1 VL with V2I, S69G
notes: human IgG1 isotype; also called HOLO; humanized 5E7 variant H0L0

target: T1, human Nectin-4 expressed on cells; test: cell-based or functional assay; conditions: not given

| Molecule | internalization efficiency on MDA-MB-468, normalized to chimeric parental antibody (Fab-ZAP, CTG), first column | internalization efficiency on MDA-MB-468, normalized to chimeric parental antibody (Fab-ZAP, CTG), second column |
| --- | --- | --- |
| B1 | 31 % of chimeric parental | 31 % of chimeric parental |
| B2 | 87.8 % of chimeric parental | 87.8 % of chimeric parental |
| B3 | -35.5 % of chimeric parental | -35.5 % of chimeric parental |
| B4 | 43.8 % of chimeric parental | 43.8 % of chimeric parental |
| B5 | 13.7 % of chimeric parental | 13.7 % of chimeric parental |
| B6 | 1.2 % of chimeric parental | 1.2 % of chimeric parental |
| B7 | 48.2 % of chimeric parental | 48.2 % of chimeric parental |
| B8 | -7.4 % of chimeric parental | -7.4 % of chimeric parental |
| B9 | -36.2 % of chimeric parental | -36.2 % of chimeric parental |

target: human Nectin-4 (protein used in the SPR affinity measurements) (human) (UniProt Q96NY8); test: SPR, human IgG1; conditions: not given

| Molecule | Kd | koff | kon |
| --- | --- | --- | --- |
| B1 | 19.5 nM | 0.0059 s⁻¹ | 310000 M⁻¹ s⁻¹ |
| B2 | 21.5 nM | 0.0053 s⁻¹ | 250000 M⁻¹ s⁻¹ |
| B3 | 46.4 nM | 0.0062 s⁻¹ | 130000 M⁻¹ s⁻¹ |
| B4 | 27 nM | 0.007 s⁻¹ | 260000 M⁻¹ s⁻¹ |
| B5 | 25.9 nM | 0.0081 s⁻¹ | 310000 M⁻¹ s⁻¹ |
| B6 | 35.8 nM | 0.0041 s⁻¹ | 110000 M⁻¹ s⁻¹ |
| B7 | 22 nM | 0.0087 s⁻¹ | 400000 M⁻¹ s⁻¹ |
| B8 | 67.3 nM | 0.0072 s⁻¹ | 110000 M⁻¹ s⁻¹ |
| B9 | 80.2 nM | 0.014 s⁻¹ | 170000 M⁻¹ s⁻¹ |

target: T2, human Nectin-4; test: Binding to human Nectin-4 by SPR; conditions: SPR association constant; first set (Table 4)
Method: The antibodies in Table 3 of Example 3 were cloned as human IgG1 isotype antibodies, produced and purified, then tested for binding to human Nectin-4. Affinity of the 16 humanized variants, as well as their association and dissociation constants were assessed by SPR analysis. Table 4 summarizes all the calculated constants (Affinity constant KD (nM), association constant ka (1/Ms) and dissociation constant kd (1/s)).
The antibodies in Table 6 of Example 5 were cloned as human IgG1 isotype antibodies, produced and purified, then tested for binding to human Nectin-4. Affinity of the 16 humanized variants, as well as their association and dissociation constants were assessed by SPR analysis. Table 7 summarizes all the calculated constants (Affinity constant KD (nM), association constant ka (1/Ms) and dissociation constant kd (1/s)).

| Molecule | ka |
| --- | --- |
| B3 | 130000 M⁻¹ s⁻¹ |
| B4 | 260000 M⁻¹ s⁻¹ |
| B5 | 310000 M⁻¹ s⁻¹ |
| B6 | 110000 M⁻¹ s⁻¹ |
| B7 | 400000 ± 30000 M⁻¹ s⁻¹ |
| B8 | 110000 M⁻¹ s⁻¹ |
| B9 | 170000 M⁻¹ s⁻¹ |

same assay, conditions: SPR association constant; second set (Table 7)

| Molecule | ka |
| --- | --- |
| B1 | 310000 ± 30000 M⁻¹ s⁻¹ |
| B9 | 170000 M⁻¹ s⁻¹ |

same assay, conditions: SPR dissociation constant; first set (Table 4)

| Molecule | kd |
| --- | --- |
| B3 | 0.0062 s⁻¹ |
| B4 | 0.007 s⁻¹ |
| B5 | 0.0081 s⁻¹ |
| B6 | 0.0041 s⁻¹ |
| B7 | 0.0087 ± 0.0004 s⁻¹ |
| B8 | 0.0072 s⁻¹ |
| B9 | 0.014 s⁻¹ |

same assay, conditions: SPR dissociation constant; second set (Table 7)

| Molecule | kd |
| --- | --- |
| B1 | 0.0059 ± 0.0003 s⁻¹ |
| B9 | 0.014 s⁻¹ |

same assay, conditions: SPR; human IgG1 isotype antibodies; first set (Table 4)

| Molecule | Kd |
| --- | --- |
| B3 | 46.4 nM |
| B4 | 27 nM |
| B5 | 25.9 nM |
| B6 | 35.8 nM |
| B7 | 22 ± 0.4 nM |
| B8 | 67.3 nM |
| B9 | 80.2 nM |

same assay, conditions: SPR; human IgG1 isotype antibodies; second set (Table 7)

| Molecule | Kd |
| --- | --- |
| B1 | 19.5 ± 0.8 nM |
| B9 | 80.2 nM |

target: T1, human Nectin-4 expressed on cells; test: cell-based or functional assay; conditions: not given; remark: another data set of the same source

| Molecule | internalization efficiency on SUM190, normalized to chimeric parental antibody (Fab-ZAP, CTG), experiment 1 | internalization efficiency on SUM190, normalized to chimeric parental antibody (Fab-ZAP, CTG), experiment 2 |
| --- | --- | --- |
| B1 | 73.5 % of chimeric parental | 72.6 % of chimeric parental |
| B2 | 82.8 % of chimeric parental | 74.9 % of chimeric parental |
| B3 | 74.2 % of chimeric parental | 61.8 % of chimeric parental |
| B4 | 65.3 % of chimeric parental | 59.6 % of chimeric parental |
| B5 | 69.8 % of chimeric parental | 45.5 % of chimeric parental |
| B6 | 81.4 % of chimeric parental | 69.7 % of chimeric parental |
| B7 | 82.1 % of chimeric parental | 41 % of chimeric parental |
| B8 | 83.7 % of chimeric parental | 58.6 % of chimeric parental |
| B9 | 65.9 % of chimeric parental | 35.4 % of chimeric parental |

target: T1, human Nectin-4 expressed on cells; test: flow cytometry on SUM190 cells, MedFI at saturation; conditions: not given
Method: The humanized antibodies in Table 3 of Example 3 and in Table 6 of Example 5 were cloned, produced and purified, then tested for binding to Nectin-4 expressing cells by flow cytometry. Binding of humanized variants in human IgG1 format was determined on the SUM190 cell line expressing high levels of Nectin-4.

| Molecule | Max MedFi |
| --- | --- |
| B1 | 18400 MedFI |
| B2 | 27100 MedFI |
| B3 | 16700 MedFI |
| B4 | 23800 MedFI |
| B5 | 22900 MedFI |
| B6 | 17600 MedFI |
| B7 | 17200 MedFI |
| B8 | 17300 MedFI |
| B9 | 15500 MedFI |
